From publication PMC5024437

Molecular target: T1, mSos1 (human (endogenous in A549)), Q07889
T1 chain: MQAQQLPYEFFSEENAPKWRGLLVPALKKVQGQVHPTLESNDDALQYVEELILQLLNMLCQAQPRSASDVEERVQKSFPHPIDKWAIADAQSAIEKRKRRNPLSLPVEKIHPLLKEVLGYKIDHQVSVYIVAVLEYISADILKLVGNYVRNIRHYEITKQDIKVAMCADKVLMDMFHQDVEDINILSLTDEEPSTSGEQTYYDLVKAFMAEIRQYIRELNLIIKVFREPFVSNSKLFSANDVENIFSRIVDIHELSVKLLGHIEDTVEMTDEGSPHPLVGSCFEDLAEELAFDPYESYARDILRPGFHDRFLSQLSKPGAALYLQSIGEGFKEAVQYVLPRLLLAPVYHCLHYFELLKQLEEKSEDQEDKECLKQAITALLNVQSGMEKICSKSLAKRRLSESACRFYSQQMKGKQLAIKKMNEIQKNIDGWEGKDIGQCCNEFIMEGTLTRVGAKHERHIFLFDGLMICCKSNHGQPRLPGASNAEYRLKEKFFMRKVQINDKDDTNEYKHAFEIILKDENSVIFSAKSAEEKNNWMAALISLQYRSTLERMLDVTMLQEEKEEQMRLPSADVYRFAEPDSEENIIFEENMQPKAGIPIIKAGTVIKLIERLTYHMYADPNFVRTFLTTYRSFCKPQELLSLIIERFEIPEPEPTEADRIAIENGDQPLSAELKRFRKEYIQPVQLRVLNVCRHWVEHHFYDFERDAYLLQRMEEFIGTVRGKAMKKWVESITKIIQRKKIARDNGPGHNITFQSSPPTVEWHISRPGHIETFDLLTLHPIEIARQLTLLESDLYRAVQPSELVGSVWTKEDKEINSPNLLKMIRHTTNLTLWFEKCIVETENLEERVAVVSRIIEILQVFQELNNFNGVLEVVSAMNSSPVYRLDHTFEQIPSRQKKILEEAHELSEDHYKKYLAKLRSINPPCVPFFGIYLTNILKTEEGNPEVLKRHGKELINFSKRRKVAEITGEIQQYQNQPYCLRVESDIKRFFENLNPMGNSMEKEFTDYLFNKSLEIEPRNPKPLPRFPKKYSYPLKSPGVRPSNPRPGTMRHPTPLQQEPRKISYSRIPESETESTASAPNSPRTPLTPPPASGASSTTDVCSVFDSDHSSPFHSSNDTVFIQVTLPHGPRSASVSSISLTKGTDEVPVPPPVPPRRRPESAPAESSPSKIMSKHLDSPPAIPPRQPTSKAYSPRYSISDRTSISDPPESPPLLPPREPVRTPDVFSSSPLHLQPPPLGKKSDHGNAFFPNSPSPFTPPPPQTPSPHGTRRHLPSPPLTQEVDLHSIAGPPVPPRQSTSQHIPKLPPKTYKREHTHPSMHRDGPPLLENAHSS
Assay: co-IP; A549 and A549 + ITSN-1s (stable myc-ITSN-1s) cell lysates, 500 ug total protein, lysis buffer 50 mM Tris-HCl pH 8.0, 150 mM NaCl, 1 % NP-40; IP with 3 ug mSos1 or Cbl Ab and protein A/G, WB with Rac1 or Eps8 Ab; densitometry as percentage of control
Details: remark: other sources report otherwise

B1: Eps8, Q12929 1-822 (natural protein)
chain: MNGHISNHPSSFGMYPSQMNGYGSSPTFSQTDREHGSKTSAKALYEQRKNYARDSVSSVSDISQYRVEHLTTFVLDRKDAMITVDDGIRKLKLLDAKGKVWTQDMILQVDDRAVSLIDLESKNELENFPLNTIQHCQAVMHSCSYDSVLALVCKEPTQNKPDLHLFQCDEVKANLISEDIESAISDSKGGKQKRRPDALRMISNADPSIPPPPRAPAPAPPGTVTQVDVRSRVAAWSAWAADQGDFEKPRQYHEQEETPEMMAARIDRDVQILNHILDDIEFFITKLQKAAEAFSELSKRKKNKKGKRKGPGEGVLTLRAKPPPPDEFLDCFQKFKHGFNLLAKLKSHIQNPSAADLVHFLFTPLNMVVQATGGPELASSVLSPLLNKDTIDFLNYTVNGDERQLWMSLGGTWMKARAEWPKEQFIPPYVPRFRNGWEPPMLNFMGATMEQDLYQLAESVANVAEHQRKQEIKRLSTEHSSVSEYHPADGYAFSSNIYTRGSHLDQGEAAVAFKPTSNRHIDRNYEPLKTQPKKYAKSKYDFVARNNSELSVLKDDILEILDDRKQWWKVRNASGDSGFVPNNILDIVRPPESGLGRADPPYTHTIQKQRMEYGPRPADTPPAPSPPPTPAPVPVPLPPSTPAPVPVSKVPANITRQNSSSSDSGGSIVRDSQRHKQLPVDRRKSQMEEVQDELIHRLTIGRSAAQKKFHVPRQNVPVINITYDSTPEDVKTWLQSKGFNPVTVNSLGVLNGAQLFSLNKDELRTVCPEGARVYSQITVQKAALEDSSGSSELQEIMRRRQEKISAAASDSGVESFDEGSSH
  percent decrease of the co-precipitated complex in A549 + ITSN-1s cells against A549 cells: 54%
